In PMC7155059, “Kinetic characterisation of Erv1, a key component for protein import and folding in yeast mitochondria” (The Febs Journal, 2019):

Substrate: OC(CS)C(O)CS
Assay: oxygen consumption, Clark-type electrode
Type: biochemical, Saccharomyces cerevisiae
Conditions: electron donor, co-substrate O2 (air, ~250 μM), 1 μM Erv1, SOD1 10 units/mL, 50 mM Tris/HCl, 150 mM NaCl, 1 mM EDTA, pH 7.4, 25 °C

B1: Erv1 (yeast Erv1) (Saccharomyces cerevisiae S288C) (protein)
chain: MKAIDKMTDNPPQEGLSGRKIIYDEDGKPCRSCNTLLDFQYVTGKISNGLKNLSSNGKLAGTGALTGEASELMPGSRTYRKVDPPDVEQLGRSSWTLLHSVAASYPAQPTDQQKGEMKQFLNIFSHIYPCNWCAKDFEKYIRENAPQVESREELGRWMCEAHNKVNKKLRKPKFDCNFWEKRWKDGWDE
notes: WT, ERV1 gene in pET-24a(+), E. coli Rosetta-gami 2, Ni-NTA then size exclusion
Q: Which Km does the source give for B1 here?
A: The Km was 1500 ± 100 µM.

Q: What about the kcat of the same protein?
A: The kcat was 1.28 ± 0.03 s⁻¹.
